Our source for the EC50 (read off the curve), EC50 and EC50(pH 6.0)/EC50(pH 7.4) values is US20220251173A1.

Test [1] concerns the target hepatitis B virus surface antigen (HBsAg) (hepatitis B virus). As to the kind of experiment: ELISA on commercial HBsAg plate, purified antibody, incubation and washes at pH 7.4, GAH-HRP, OD450/630. A general note: An ELISA detects its analyte on a solid surface through an enzyme-linked reagent.
Test [2] has the same target. As to the kind of experiment: ELISA on commercial HBsAg plate, pH 7.4, quantified transfection supernatant.
Test [3] has the same target. Briefly: ELISA on commercial HBsAg plate, ratio of EC50 at pH 6.0 to pH 7.4.
Test [4] shares this target. As to the kind of experiment: ELISA on commercial HBsAg plate, wash/incubation at pH 6.0, quantified transfection supernatant.

B1: D3 DY (antibody, human IgG1, kappa, V domains shown)
VH: EVQLQESGPGLVKPSQTLSLTCAVSGSSITHGYHYNWIRQFPGNKLEWIGYIHYDGSVLYNPSLENRVTITRDTSKNQFFLKLSSVTAEDTAKYYCASGFDHWGQGTTLTVSS
VL: DVVMTQSPLSLPVTLGEPASISCRSSQSLVHSYGDNYLHWYLQKPGQSPKLLIYKVSNRFSGVPDRFSGSGSGTDFTLKISRVETEDLGVYYCSQNTHVPYTFGGGTKLEIKR
The term EC50 (read off the curve) denotes the concentration needed to bring the measured effect to its halfway point. Low values mean greater potency, high ones weaker potency. Consider B1, for which the half-maximal effective concentration (EC50 (read off the curve)) in test [1] turned out to be 0.05 µg/mL.

B2: C32 (antibody, human IgG1, kappa, V domains shown)
VH: EVQLQESGPGLVKPSQTLSLTCAVSGSSITYRYHWNWIRQFPGNKLEWIGYINYDGSVHYNPSLENRVTITRDTSKNQFFLKLSSVTAEDTAKYYCASGFDHWGQGTTLTVSS
VL: DVVMTQSPLSLPVTLGEPASISCRSSQSLVHSYGDTYLHWYLQKPGQSPKLLIYKVSNRFSGVPDRFSGSGSGTDFTLKISRVETEDLGVYYCSQNTHLPYTFGGGTKLEIKR
In general, EC50 refers to the concentration at which the effect is half-maximal. Low values mean an effect from little substance, high ones a need for much substance. With B2, the EC50 in test [2] came out at 1.33 µg/mL; in test [4] it was 2.25 µg/mL. Besides, the EC50(pH 6.0)/EC50(pH 7.4) in test [3] came to 1.69.

B3: D4 DY (antibody, human IgG1, kappa, V domains shown)
VH: EVQLQESGPGLVKPSQTLSLTCAVSGSSITHGYHWNWIRQFPGNKLEWIGYIHYDGSVLYNPSLENRVTITRDTSKNQFFLKLSSVTAEDTAKYYCASGFDHWGQGTTLTVSS
VL: DVVMTQSPLSLPVTLGEPASISCRSSQSLVHSYGDNYLHWYLQKPGQSPKLLIYKVSNRFSGVPDRFSGSGSGTDFTLKISRVETEDLGVYYCSQNTHLPYTFGGGTKLEIKR
In the case of B3, the EC50 (read off the curve) in test [1] came out at 0.06 µg/mL.

B4: D5 DY (antibody, human IgG1, kappa, V domains shown)
VH: EVQLQESGPGLVKPSQTLSLTCAVSGSSITHGYHWNWIRQFPGNKLEWIGYIHYDGSVLYNPSLENRVTITRDTSKNQFFLKLSSVTAEDTAKYYCASGFDHWGQGTTLTVSS
VL: DVVMTQSPLSLPVTLGEPASISCRSSQSLVHSYGDNYLHWYLQKPGQSPKLLIYKVSNRFSGVPDRFSGSGSGTDFTLKISRVETEDLGVYYCSQNTHVPYTFGGGTKLEIKR
In the case of B4, the half-maximal effective concentration (EC50 (read off the curve)) in test [1] came to 0.04 µg/mL.
